Experimental data as given in paper PMC12151457.

Molecular target: Asp229 (UniProt position 204, GLPADDRVGDK)
Assay: kinetics
Settings: 25 °C, 100 mM NaCl, 10 mM HEPES
[1] = free enzyme (the authors interpret the pH dependence of kcat/KM as ionisation of the catalytic Asp in the substrate-free enzyme)

Substance	pKa [1]	pKa (free enzyme (the authors state that kcat/KM reports ionisation in the substrate-free enzyme))
V4 Kemp eliminase (GNCA4-12 ancestral beta-lactamase scaffold with extra C-terminal polypeptide segment) (synthetic construct (reconstructed ancestral class A beta-lactamase, GNCA node, last common ancestor of various Gram-negative bacteria); W229D;F290W;I250V;R256H;L260F;V261L;H291V;insertion of extra C-terminal polypeptide segment (sequence not stated))	about 7	–
V4 Kemp eliminase (GNCA4-12 ancestral beta-lactamase-based de novo Kemp eliminase with an extra C-terminal polypeptide segment) (synthetic construct (reconstructed ancestral GNCA node beta-lactamase, last common ancestor of various Gram-negative bacteria); W229D;F290W;I250V;R256H;L260F;V261L;H291V;C-terminal polypeptide segment insertion)	–	6.7
V4-4 Kemp eliminase (V4 + L49I/G58Q/R230I/A257P/A262C) (synthetic construct (reconstructed ancestral class A beta-lactamase, GNCA node, last common ancestor of various Gram-negative bacteria); W229D;F290W;I250V;R256H;L260F;V261L;H291V;L49I;G58Q;R230I;A257P;A262C;insertion of extra C-terminal polypeptide segment (sequence not stated))	about 7	–
